Values joined by “and” are separate entries in the source; they are usually repeats but may differ in a detail not shown here. Equal entries are not always repeated.

For test [1], the target named is G protein of rabies virus DR Brazil , on virus (rabies virus). The test can be described thus: cell-based or functional assay.
Test [2] concerns the target G protein of rabies virus Mongoose RSA , on virus (rabies virus). The test can be described thus: cell-based or functional assay.

B1: antibody 2 (antibody, V domains shown)
VH: EVQLVESGAEVKKPGASVKVSCKASGYTFTSYDISWVRQAPGQGLEWMGWISTYKGNTNFAQKFQDRVTLTTDTSTTTAYMELRSLTSDDTAVYYCARAKSHPFYDFWSAYYVPGAFDIWGQGTVVTVSS
VL: not shown
As to B1, in test [1], the “neutralizing activity (RFFIT)” value is 1.8 IU/mL and 1800 IU/mg; the “neutralizing activity (RFFIT), Titer” value is 45. Moreover, in test [2], the “neutralizing activity (RFFIT)” value was 9.1 IU/mL and 9140 IU/mg; the “neutralizing activity (RFFIT), Titer” value came out at 320.

B2: antibody 1 (antibody, V domains shown)
VH: VQLLQESGPGLAKPSETLSLICTVSGGSISRRRDYWGWIRQPPGRGLEWIGSFFHRGSTYYNPSLESRVSISVDPSKNQFSLHLSSVTVADTAVYYCARHPSTPFAEYLLLPDAFDSWGQGTLVTVSS
VL: DIVMTQSPATLSVSPGERATLSCRASQSVRSSLAWYQQRPGQAPRLLISGASTRATDIPARLSGSGSGTEFTLTVSSLQSEDFAVYYCQQYSDWPLTFGGGTKVEIKR
In the case of B2, in test [1], the “neutralizing activity (RFFIT)” value was 2.2 IU/mL and 2240 IU/mg; the “neutralizing activity (RFFIT), Titer” value came to 56. Besides, in test [2], the “neutralizing activity (RFFIT)” value is 7.7 IU/mL and 7710 IU/mg; the “neutralizing activity (RFFIT), Titer” value was found to be 270.

The values are drawn from patent publication US20190022211A1 (CELLTRION, published 2019).
